The test system of this assay is HL-60. The assay is described as follows: Cellular Toxicity Test (3) for ADCs. In kind it is cell-based. To be noted: HL-60, treatment with 333 nM of ADC. How it is done: In accordance with the method described in Test Example 3 or Test Example 7, cellular toxicities of Example ADCs were measured using the cell types shown in the following table. As an indicator for the cellular toxicity, IC50 or the cell survival rate upon the treatment with 333 nM of ADC was measured. However, for ADC 51, the cell survival rate upon the treatment with 26.6 nM of ADC51 was measured.

B1: ADC54: ADC of Vadastuximab and M4, average DAR 5.3 (conjugate, chains of the INN, looked up)
VH: QVQLVQSGAEVKKPGASVKVSCKASGYTFTNYDINWVRQAPGQGLEWIGWIYPGDGSTKYNEKFKAKATLTADTSTSTAYMELRSLRSDDTAVYYCASGYEDAMDYWGQGTTVTVSS
VL: DIQMTQSPSSLSASVGDRVTINCKASQDINSYLSWFQQKPGKAPKTLIYRANRLVDGVPSRFSGSGSGQDYTLTISSLQPEDFATYYCLQYDEFPLTFGGGTKVEIK
modifications: drug-linker M4, DAR 5.3
As for B1, the “Cell survival rate (%)” value is 68%.

The values are drawn from patent publication US11795195B2, “Antibody-drug conjugates including hemiasterlin derivative” (Sumitomo Pharma Co., Ltd., priority 2017, dated 2023).
